In paper PMC9181698:

B1: unnamed (parent)
chain 1: DKEWILQKIYEIMRLLDELGHAEASMRVSDLIYEF
chain 2: not shown

Variants of: B1
Conditions: with partner chain of the complex shown; 12 nM peptide; read off a plot

**Q.** With chain 1 L19A as the variant, how does the screen value read?
**A.** 1.7%

**Q.** chain 1 L31A was tested. Which screen value did it give?
**A.** 18%

**Q.** For chain 1 E18A, which screen value is on record?
**A.** 1%

**Q.** chain 1 Q7A was tested. Which screen value did it give?
**A.** 19%

**Q.** For chain 1 I9A, which screen value is on record?
**A.** 3%

**Q.** Which screen value does the source give for chain 1 L6A here?
**A.** 69%

**Q.** chain 1 R14A was tested. Which screen value did it give?
**A.** 24%

**Q.** With chain 1 S29A as the variant, how does the screen value read?
**A.** 49%

**Q.** Which screen value does the source give for chain 1 H21A here?
**A.** 31%

**Q.** How did the screen value turn out when chain 1 D17A was run?
**A.** 14%

**Q.** How did the screen value turn out when chain 1 L15A was run?
**A.** 4.5%

**Q.** chain 1 Y10A was tested. Which screen value did it give?
**A.** 18%

**Q.** With chain 1 I12A as the variant, how does the screen value read?
**A.** 7%

**Q.** chain 1 V28A was tested. Which screen value did it give?
**A.** 8.5%

**Q.** Which screen value does the source give for chain 1 E34A here?
**A.** 20%

**Q.** For chain 1 E11A, which screen value is on record?
**A.** 26%

**Q.** How did the screen value turn out when chain 1 L16A was run?
**A.** 23%

**Q.** Which screen value does the source give for chain 1 G20A here?
**A.** 66%

**Q.** chain 1 E3A was tested. Which screen value did it give?
**A.** 4.5%

**Q.** How did the screen value turn out when chain 1 F35A was run?
**A.** 23%

**Q.** How did the screen value turn out when chain 1 I5A was run?
**A.** 3%

**Q.** chain 1 K2A was tested. Which screen value did it give?
**A.** 47%

**Q.** With chain 1 D1A as the variant, how does the screen value read?
**A.** 4.5%

**Q.** How did the screen value turn out when chain 1 M26A was run?
**A.** 67%

**Q.** How did the screen value turn out when chain 1 M13A was run?
**A.** 92%

**Q.** Which screen value does the source give for chain 1 W4A here?
**A.** 3.7%

**Q.** chain 1 Y33A was tested. Which screen value did it give?
**A.** 86%

**Q.** With chain 1 E23A as the variant, how does the screen value read?
**A.** 50%

**Q.** chain 1 D30A was tested. Which screen value did it give?
**A.** 96%

**Q.** With chain 1 R27A as the variant, how does the screen value read?
**A.** 3%

**Q.** Which screen value does the source give for chain 1 K8A here?
**A.** 19%

**Q.** For chain 1 S25A, which screen value is on record?
**A.** 9%

**Q.** How did the screen value turn out when chain 1 I32A was run?
**A.** 46%
